Results on seven molecules are retold here after patent publication US20260125469A1 (Hoffmann-La Roche, published 2026).

Positions count from the first letter of the chain named. In names and notes the source's numbering stands.

To fix the notation:
B1: CEACAM5-TCB, CEACAM5 CD3 variant P035.093 (bispecific antibody, human IgG1, kappa, L234A L235A)
heavy 1: not shown
heavy 2: QVQLVQSGAEVKKPGSSVKVSCKASGFNIKDTYMHWVRQAPGQGLEWMGRIDPANGNSKYVPKFQGRVTITADTSTSTAYMELSSLRSEDTAVYYCAPFGYYVSDYAMAYWGQGTLVTVSSASTKGPSVFPLAPSSKSTSGGTAALGCLVEDYFPEPVTVSWNSGALTSGVHTFPAVLQSSGLYSLSSVVTVPSSSLGTQTYICNVNHKPSNTKVDEKVEPKSCDKTHTCPPCPAPEAAGGPSVFLFPPKPKDTLMISRTPEVTCVVVDVSHEDPEVKFNWYVDGVEVHNAKTKPREEQYNSTYRVVSVLTVLHQDWLNGKEYKCKVSNKALGAPIEKTISKAKGQPREPQVCTLPPSRDELTKNQVSLSCAVKGFYPSDIAVEWESNGQPENNYKTTPPVLDSDGSFFLVSKLTVDKSRWQQGNVFSCSVMHEALHNHYTQKSLSLSP
light 1: EIVLTQSPATLSLSPGERATLSCRAGESVDIFGVGFLHWYQQKPGQAPRLLIYRASNRATGIPARFSGSGSGTDFTLTISSLEPEDFAVYYCQQTNEDPYTFGQGTKLEIKRTVAAPSVFIFPPSDRKLKSGTASVVCLLNNFYPREAKVQWKVDNALQSGNSQESVTEQDSKDSTYSLSSTLTLSKADYEKHKVYACEVTHQGLSSPVTKSFNRGEC
light 2: EVQLLESGGGLVQPGGSLRLSCAASGFTFSSYAMNWVRQAPGKGLEWVSRIRSKYNNYATYYADSVKGRFTISRDDSKNTLYLQMNSLRAEDTAVYYCVRASNFPASYVSYFAYWGQGTLVTVSSASVAAPSVFIFPPSDEQLKSGTASVVCLLNNFYPREAKVQWKVDNALQSGNSQESVTEQDSKDSTYSLSSTLTLSKADYEKHKVYACEVTHQGLSSPVTKSFNRGEC
notes: 2+1 IgG CrossFab, inverted; human IgG1 Fc, knob-into-hole, PGLALA; also called P035.093 in CEACAM5-TCB format
B2: CEACAM5-TCB with CD3orig as CD3 binder (bispecific antibody, human IgG1, kappa, L234A L235A)
heavy 1: not shown
heavy 2: B1 heavy 2
light 1: B1 light 1
light 2: B1 light 2 with S31T, A101H, S102G, P105G, A106N, Y111W
notes: also called CD3orig in CEACAM5-TCB format
B3: TYRP1-TCB with the parental CD3 binder CD3orig (bispecific antibody, human IgG1, kappa, L234A L235A)
heavy 1: not shown
heavy 2: QVQLVQSGAEVKKPGASVKVSCKASGFNIKDYFLHWVRQAPGQGLEWMGWINPDNGNTVYAQKFQGRVTMTADTSTSTVYMELSSLRSEDTAVYYCTRRDYTYEKAALDYWGQGTLVTVSSASTKGPSVFPLAPSSKSTSGGTAALGCLVEDYFPEPVTVSWNSGALTSGVHTFPAVLQSSGLYSLSSVVTVPSSSLGTQTYICNVNHKPSNTKVDEKVEPKSCDKTHTCPPCPAPEAAGGPSVFLFPPKPKDTLMISRTPEVTCVVVDVSHEDPEVKFNWYVDGVEVHNAKTKPREEQYNSTYRVVSVLTVLHQDWLNGKEYKCKVSNKALGAPIEKTISKAKGQPREPQVCTLPPSRDELTKNQVSLSCAVKGFYPSDIAVEWESNGQPENNYKTTPPVLDSDGSFFLVSKLTVDKSRWQQGNVFSCSVMHEALHNHYTQKSLSLSP
light 1: DIQMTQSPSSLSASVGDRVTITCRASGNIYNYLAWYQQKPGKVPKLLIYDAKTLADGVPSRFSGSGSGTDFTLTISSLQPEDVATYYCQHFWSLPFTFGQGTKLEIKRTVAAPSVFIFPPSDRKLKSGTASVVCLLNNFYPREAKVQWKVDNALQSGNSQESVTEQDSKDSTYSLSSTLTLSKADYEKHKVYACEVTHQGLSSPVTKSFNRGEC
light 2: B1 light 2 with S31T, A101H, S102G, P105G, A106N, Y111W
notes: Same 2+1 format as m1; also called CD3orig in TCB format
B4: TYRP1-TCB with anti-CD3 antibody clone P004.042 (bispecific antibody, human IgG1, kappa, L234A L235A)
heavy 1: not shown
heavy 2: B3 heavy 2
light 1: B3 light 1
light 2: B1 light 2 with T28Q, S30D, S31N, S53T, N57E, A106Q, A113G
notes: human IgG1 Fc, knob-into-hole, P329G L234A L235A; also called P004.042 in TCB format
B5: TYRP1-TCB with anti-CD3 antibody clone P021.045 (bispecific antibody, human IgG1, kappa, L234A L235A)
heavy 1: not shown
heavy 2: B3 heavy 2
light 1: B3 light 1
light 2: B1 light 2 with A106S
notes: human IgG1 Fc, knob-into-hole, P329G L234A L235A; also called P021.045 in TCB format
B6: TYRP1-TCB with anti-CD3 antibody clone P035.064 (bispecific antibody, human IgG1, kappa, L234A L235A)
heavy 1: not shown
heavy 2: B3 heavy 2
light 1: B3 light 1
light 2: B1 light 2 with T28D, S30D, S31N, Y55H, N57G, A106S, A113G
notes: human IgG1 Fc, knob-into-hole, P329G L234A L235A; also called P035.064 in TCB format
B7: TYRP1-TCB with anti-CD3 antibody clone P035.093 (bispecific antibody, human IgG1, kappa, L234A L235A)
heavy 1: not shown
heavy 2: B3 heavy 2
light 1: B3 light 1
light 2: B1 light 2
notes: human IgG1 Fc, knob-into-hole, P329G L234A L235A; also called P035.093 in TCB format

The target in one assay is human CD3 on cells (CD3ε) (human, UniProt P07766 23-207). Description: cell-based or functional assay.
Chain of human CD3 on cells (CD3ε) (P07766 23-207 limits assumed): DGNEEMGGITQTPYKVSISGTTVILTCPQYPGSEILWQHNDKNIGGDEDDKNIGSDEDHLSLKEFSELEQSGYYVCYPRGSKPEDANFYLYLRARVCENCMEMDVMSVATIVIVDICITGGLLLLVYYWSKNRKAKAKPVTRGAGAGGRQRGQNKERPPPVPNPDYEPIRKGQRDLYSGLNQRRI
As to B1, the “EC50 24 h (pM), T-cell mediated lysis of CEACAM5-expressing LS180 tumor cells” value is 22 pM and the “EC50 48 h (pM), T-cell mediated lysis of CEACAM5-expressing LS180 tumor cells” value was found to be 14.2 pM.

Consider B2, for which the “EC50 24 h (pM), T-cell mediated lysis of CEACAM5-expressing LS180 tumor cells” value stood at 244 pM and the “EC50 48 h (pM), T-cell mediated lysis of CEACAM5-expressing LS180 tumor cells” value was determined as 115 pM.

For the next assay, the target named is T1, Human CD3ε stalk-Fc(knob)-Avi/CD3δ stalk-Fc(hole) (human).
T1 construct: Heterodimer of CD3 delta and CD3 epsilon ectodomains fused to human Fc with knob-into-hole; also called human CD3ε/δ; CD3 antigen
Description: SPR on immobilized human CD3ε/δ after stress, relative to sample kept at -80°C pH 6. Here is the method: (§1) In order to assess the effect of the deamidation site removal and its effect on the stability of the antibodies, the optimized anti-CD3 antibodies (in TCB format) were incubated for 14 days at 37° C., pH 7.4 and at 40° C., pH 6 and further analyzed by SPR for their binding capability to human CD3ε/δ. Samples stored at −80° C. pH 6 were used as reference. The reference samples and the samples stressed at 40° C. were in 20 mM His, 140 mM NaCl, pH 6.0, and the samples stressed at 37° C. in PBS, pH 7.4, all at a concentration of 1.0 mg/ml. After the stress period (14 days) samples in PBS were dialyzed back to 20 mM His, 140 mM NaCl, pH 6.0 for further analysis.
(§2) All SPR experiments were performed on a Biacore T200 instrument (GE Healthcare) at 25° C. with HBS-P+ (10 mM HEPES, 150 mM NaCl pH 7.4, 0.05% Surfactant P20) as running and dilution buffer. Biotinylated human CD3ε/δ (see Example 3, SEQ ID NOs 41 and 42) as well as biotinylated anti-huIgG (Capture Select, Thermo Scientific, #7103262100) were immobilized on a Series S Sensor Chip SA (GE Healthcare, #29104992), resulting in surface densities of at least 1000 resonance units (RU). Anti-CD3 antibodies with a concentration of 2 μg/ml were injected for 30 s at a flow rate of 5 μl/min, and dissociation was monitored for 120 s. The surface was regenerated by injecting 10 mM glycine pH 1.5 for 60 s. Bulk refractive index differences were corrected by subtracting blank injections and by subtracting the response obtained from a blank control flow cell. For evaluation, the binding response 5 seconds after injection end was taken. To normalize the binding signal, the CD3 binding was divided by the anti-huIgG response (the signal (RU) obtained upon capture of the CD3 antibody on the immobilized anti-huIgG antibody). The relative binding activity was calculated by referencing each temperature stressed sample to the corresponding, non-stressed sample.
The experiment was performed as described in Example 4, using the TCB molecules prepared in Example 7.
For B1, the “binding activity [%] after 2 weeks at pH 6.0/40°C” value turned out to be 100% and the “binding activity [%] after 2 weeks at pH 7.4/37°C” value came out at 97%.

Take B2: the “binding activity [%] after 2 weeks at pH 6.0/40°C” value was determined as 95% and the “binding activity [%] after 2 weeks at pH 7.4/37°C” value came out at 66%.

Another assay has as its target T1, Human CD3ε stalk-Fc(knob)-Avi/CD3δ …. As to the kind of experiment: SPR, TCB captured by anti-PG antibody, antigen as analyte, 25°C. The source says:
(§3) For affinity measurements, TCB molecules were captured on a C1 sensorchip (GE Healthcare) surface with immobilized anti-Fc(P329G) IgG (an antibody that specifically binds human IgG₁ Fc(P329G); “anti-PG antibody”—see WO 2017/072210, incorporated herein by reference). The experimental setup is schematically depicted in FIG. 3. Capture IgG was coupled to the sensorchip surface by direct immobilization of around 400 resonance units (RU) using the standard amine coupling kit (GE Healthcare Life Sciences).
(§4) Kinetic constants were derived using the Biacore T200 Evaluation Software (GE Healthcare Life Sciences), to fit rate equations for 1:1 Langmuir binding by numerical integration. The half-life (t_{1/2}) of the interaction was calculated using the formula t_{1/2}=ln2/koff.
(§5) To analyze the interaction to CD3, TCB molecules were captured for 240 s at 25 nM with a flow rate of 10 μl/min. Human and cynomolgus CD3F stalk-Fc(knob)-Avi/CD36-stalk-Fc(hole) were passed at a concentration of 0.14-100 nM with a flow rate of […] through the flow cells for 240 s. The dissociation was monitored for 800 s.
The molecule B1 displayed an equilibrium dissociation constant (Kd) of 0.384 nM, a koff of 0.00111 s⁻¹, an association rate constant (kon) of 2.93e+06 M⁻¹ s⁻¹ and a t1/2 of 10.4 min.

Regarding B2, the Kd came to 3.37 nM, the koff turned out to be 0.00281 s⁻¹, the kon was 851000 M⁻¹ s⁻¹ and the t1/2 is 4.1 min.

For another assay, the target named is T2, Cynomolgus CD3ε stalk-Fc(knob)-Avi/CD3δ stalk-Fc(hole) (cynomolgus).
T2 construct: also called cynomolgus CD3ε/δ
Described as above.
Text: as §3, §4, §5
The molecule B1 gave a Kd of 0.201 nM, a koff of 0.000765 s⁻¹, an on-rate (kon) of 3.8e+06 M⁻¹ s⁻¹ and a t1/2 of 15.1 min.

The target of a further assay is T1, Human CD3ε stalk-Fc(knob)-Avi/CD3δ …. The description is as above. This is another data set of the same source.
Text: as §3
(§6) To analyze the interaction to CD3, TCB molecules were captured for 80 s at 25 nM with a flow rate of 10 μl/min. […] The dissociation was monitored for 800 s.
as §4
The molecule B3 registered a Kd of 6.54 nM, an off-rate (koff) of 0.00338 s⁻¹, a kon of 517000 M⁻¹ s⁻¹ and a t1/2 of 3.42 min.

As for B4, the affinity, expressed as Kd, was 1.54 nM; the dissociation rate constant (koff) is 0.00295 s⁻¹; the kon was 1.92e+06 M⁻¹ s⁻¹; the t1/2 came out at 3.92 min.

B5 gave a Kd of 0.43 nM, a koff of 0.00133 s⁻¹, a kon of 3.1e+06 M⁻¹ s⁻¹ and a t1/2 of 8.69 min.

The molecule B6 yielded a Kd of 0.63 nM, a koff of 0.00115 s⁻¹, a kon of 1.83e+06 M⁻¹ s⁻¹ and a t1/2 of 10 min.

As to B7, the Kd was 0.41 nM, the off-rate constant (koff) worked out at 0.00153 s⁻¹, the kon worked out at 3.75e+06 M⁻¹ s⁻¹ and the t1/2 was 7.55 min.

A further assay concerns the target T2, Cynomolgus CD3ε stalk-Fc(knob)-Avi/CD3δ …. Described as above. The source holds these as a separate data set.
Text: as §3, §6, §4
On to B4, for which the Kd is 0.71 nM, the koff was found to be 0.00272 s⁻¹, the kon was found to be 3.85e+06 M⁻¹ s⁻¹ and the t1/2 is 4.25 min.

The molecule B5 came in with a Kd of 0.2 nM, a koff of 0.000967 s⁻¹, an on-rate (kon) of 4.88e+06 M⁻¹ s⁻¹ and a t1/2 of 11.9 min.

Molecule B6 came in with an equilibrium dissociation constant (Kd) of 0.38 nM, a koff of 0.000921 s⁻¹, an on-rate (kon) of 2.44e+06 M⁻¹ s⁻¹ and a t1/2 of 12.5 min.

Molecule B7 registered a Kd of 0.21 nM, a koff of 0.00104 s⁻¹, an on-rate constant (kon) of 4.89e+06 M⁻¹ s⁻¹ and a t1/2 of 11.1 min.

The next assay has as its target T1, Human CD3ε stalk-Fc(knob)-Avi/CD3δ …. As to the kind of experiment: SPR on immobilized human CD3ε/δ after stress, relative to sample kept at -80°C pH 6. The source holds these as a separate data set. How it is done:
as §1, §2
Take B3: the “binding activity [%] after 2 weeks at pH 6.0/40°C” value was determined as 95% and the “binding activity [%] after 2 weeks at pH 7.4/37°C” value was 65%.

For B4, the “binding activity [%] after 2 weeks at pH 6.0/40°C” value was determined as 98% and the “binding activity [%] after 2 weeks at pH 7.4/37°C” value came to 98%.

For B5, the “binding activity [%] after 2 weeks at pH 6.0/40°C” value worked out at 99% and the “binding activity [%] after 2 weeks at pH 7.4/37°C” value is 95%.

As to B6, the “binding activity [%] after 2 weeks at pH 6.0/40°C” value was determined as 97% and the “binding activity [%] after 2 weeks at pH 7.4/37°C” value was determined as 96%.

Regarding B7, the “binding activity [%] after 2 weeks at pH 6.0/40°C” value was 97% and the “binding activity [%] after 2 weeks at pH 7.4/37°C” value is 95%.
